From IntAct's records for PubMed 34964704

B1: Claudin-2 (Homo sapiens), P57739 (parent)
chain: MASLGLQLVGYILGLLGLLGTLVAMLLPSWKTSSYVGASIVTAVGFSKGLWMECATHSTGITQCDIYSTLLGLPADIQAAQAMMVTSSAISSLACIISVVGMRCTVFCQESRAKDRVAVAGGVFFILGGLLGFIPVAWNLHGILRDFYSPLVPDSMKFEIGEALYLGIISSLFSLIAGIILCFSCSSQRNRSNYYDAYQAQPLATRSSPRPGQPPKVKSEFNSYSLTGYV

Variants of: B1
Conditions: with ap2m1_human AP2M1, Q96CW1
ap2m1_human AP2M1, Q96CW1, sequence (Q96CW1 whole entry): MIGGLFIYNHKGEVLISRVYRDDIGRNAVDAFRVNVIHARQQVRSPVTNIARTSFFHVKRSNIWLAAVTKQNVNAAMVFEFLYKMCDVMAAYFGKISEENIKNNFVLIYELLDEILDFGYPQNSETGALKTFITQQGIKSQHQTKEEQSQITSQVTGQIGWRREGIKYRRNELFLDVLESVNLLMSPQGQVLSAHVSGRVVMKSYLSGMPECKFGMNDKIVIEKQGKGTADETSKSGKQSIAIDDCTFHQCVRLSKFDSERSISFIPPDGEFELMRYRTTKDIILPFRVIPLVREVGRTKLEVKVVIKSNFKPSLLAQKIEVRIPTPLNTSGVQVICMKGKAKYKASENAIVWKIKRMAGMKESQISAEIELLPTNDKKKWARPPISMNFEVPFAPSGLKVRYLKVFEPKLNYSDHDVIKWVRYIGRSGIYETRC

Row | effect of a mutation on the interaction | Variant
1 | disrupting interaction strength | Y67A;L70A;Y148A;L151A
2 | decreasing interaction strength | Y148A;L151A
3 | disrupting interaction strength | Y67A;L70A

Variants of: B1
Conditions: with ap2m1_human AP2M1, Q96CW1
Remark: another data set of the same source

Row | effect of a mutation on the interaction | Variant
4 | disrupting interaction | Y67A;L70A;Y148A;L151A
